The results in this text go back to article PMC9863593, “Crystal Structure of Allantoinase from Escherichia coli BL21: A Molecular Insight into a Role of the Active Site Loops in Catalysis” (Molecules, 2023).

The series concerns the molecule itself. Briefly: crystal structure; hanging drop vapor diffusion, room temperature, 20% PEG8000, 100 mM CHES pH 9.5; protein at 30 mg/mL; space group C121; four monomers per asymmetric unit; 2.07 Å.

B1: Allantoinase from Escherichia coli BL21 (enzyme)
chain: MSFDLIIKNGTVILENEARVVDIAVKGGKIAAIGQDLGDAKEVMDASGLVVSPGMVDAHTHISEPGRSHWEGYETGTRAAAKGGITTMIEMPLNQLPATVDRASIELKFDAAKGKLTIDAAQLGGLVSYNIDRLHELDEVGVVGFKCFVATCGDRGIDNDFRDVNDWQFFKGAQKLGELGQPVLVHCENALICDELGEEAKREGRVTAHDYVASRPVFTEVEAIRRVLYLAKVAGCRLHVCHVSSPEGVEEVTRARQEGQDVTCESCPHYFVLDTDQFEEIGTLAKCSPPIRDLENQKGMWEKLFNGEIDCLVSDHSPCPPEMKAGNIMEAWGGIAGLQNCMDVMFDEAVQKRGMSLPMFGKLMATNAADIFGLQQKGRIAPGKDADFVFIQPNSSYVLTNDDLEYRHKVSPYVGRTIGARITKTILRGDVIYDIEQGFPVAPKGQFILKHQQ
modifications: carbamylated lysine at 146 (Kcx146)
notes: Allantoinase (allB, ECD_00462) of E. coli BL21; predicted monomer of 453 amino acid residues, 49.6 kDa; Zinc-amended enzyme with 2 Zn ions per monomer; construct limits and tag are not described here; Residues 452-453 are said to be seen in the structure; also called EcALLase-BL21; E. coli BL21 ALLase
With B1, the stoichiometry N (commonly a count of units in the complex or per binding partner) came out at 4.
